Test results published in article doi:10.1101/2022.10.05.510992.

Molecular target: Sodium-bicarbonate co-transporter NBCn1 (SLC4A7), native in human cells (human (endogenous in MCF-7 and HEK293T)) (UniProt Q9Y6M7)
Experiment: proximity ligation

Sequence of UniProt Q9Y6M7 (Q9Y6M7 whole entry): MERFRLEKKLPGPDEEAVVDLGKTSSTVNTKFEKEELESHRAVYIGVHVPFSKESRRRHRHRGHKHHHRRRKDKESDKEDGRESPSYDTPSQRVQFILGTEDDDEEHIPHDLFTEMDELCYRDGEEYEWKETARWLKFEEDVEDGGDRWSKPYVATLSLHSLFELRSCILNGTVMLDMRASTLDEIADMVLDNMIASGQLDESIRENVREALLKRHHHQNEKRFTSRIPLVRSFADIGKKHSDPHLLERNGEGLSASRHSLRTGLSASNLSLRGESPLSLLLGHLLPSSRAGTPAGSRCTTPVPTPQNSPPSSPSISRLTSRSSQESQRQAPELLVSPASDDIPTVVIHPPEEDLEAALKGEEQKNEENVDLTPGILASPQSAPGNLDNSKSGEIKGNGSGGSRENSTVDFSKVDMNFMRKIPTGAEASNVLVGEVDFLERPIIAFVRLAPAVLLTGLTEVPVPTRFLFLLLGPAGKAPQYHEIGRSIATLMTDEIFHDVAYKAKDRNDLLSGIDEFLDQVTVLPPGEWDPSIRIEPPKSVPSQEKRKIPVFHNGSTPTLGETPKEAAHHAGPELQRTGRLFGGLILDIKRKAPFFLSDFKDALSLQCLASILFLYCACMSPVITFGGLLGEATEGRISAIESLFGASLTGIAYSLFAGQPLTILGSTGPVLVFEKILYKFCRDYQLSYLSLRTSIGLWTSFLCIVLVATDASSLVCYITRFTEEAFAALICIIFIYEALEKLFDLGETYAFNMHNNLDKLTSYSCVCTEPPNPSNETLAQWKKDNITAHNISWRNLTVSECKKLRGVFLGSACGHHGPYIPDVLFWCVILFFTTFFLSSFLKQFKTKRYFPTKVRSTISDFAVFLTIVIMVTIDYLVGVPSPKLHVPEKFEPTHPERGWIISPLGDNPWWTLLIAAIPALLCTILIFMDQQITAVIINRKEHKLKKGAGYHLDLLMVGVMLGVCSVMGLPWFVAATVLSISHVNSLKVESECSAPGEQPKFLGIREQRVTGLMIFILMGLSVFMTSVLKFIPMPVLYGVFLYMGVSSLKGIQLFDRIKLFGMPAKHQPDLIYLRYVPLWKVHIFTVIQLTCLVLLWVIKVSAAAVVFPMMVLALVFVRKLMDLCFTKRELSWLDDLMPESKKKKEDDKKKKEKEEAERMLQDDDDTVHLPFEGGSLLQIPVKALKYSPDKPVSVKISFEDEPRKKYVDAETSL

E-cadherin, native in MCF-7 cells (natural protein)
PLA signal, fold over the NBCn1-NHE1 control: 4 fold | PLA signal, fold over the negative control (only NBCn1 antibody): 11 fold
